The values that follow come from the supplement of paper PMC5998384.

Data set [1] deals with HeLa Kyoto. Kind of data set: melting temperature (median over replicates), in situ; higher = more thermally stable.
Data set [2] relates to HeLa Kyoto. The experiment in a line: thermal stability score vs G1/S (z-score of summed log2 fold changes over temperatures); higher = more thermally stable than in G1/S.
Data set [3] relates to HeLa Kyoto. Kind of data set: solubility in G1/S (NP-40 vs SDS abundance) (log2 ratio); higher = more soluble. The following applies: cell cycle stage: G1/S.
Data set [4] has as its system HeLa Kyoto. Kind of data set: solubility change mitosis vs G1/S (difference of NP-40 vs SDS log2 ratios) (log2 ratio difference); higher = more soluble in mitosis.
The mark [5] stands for this setting: cell cycle stage: early G1 (4.5 h after nocodazole release).
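For melting temperature (median over replicates), in situ in this document: HeLa Kyoto cells synchronized by double thymidine or nocodazole block, proteins quantified by TMT10plex mass spectrometry, three independent biological replicates.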
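For solubility change mitosis vs G1/S (difference of NP-40 vs SDS log2 ratios) in this document: synchronized HeLa Kyoto cells (double thymidine block for G1/S, nocodazole release for mitosis), protein amounts in NP-40 versus SDS lysates quantified by mass spectrometry, three biological replicates.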
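For solubility in G1/S (NP-40 vs SDS abundance) in this document: HeLa Kyoto cells arrested at G1/S by double thymidine block, proteins quantified by TMT10plex mass spectrometry in mild NP-40 versus SDS extracts, three biological replicates.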
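For thermal stability score vs G1/S (z-score of summed log2 fold changes over temperatures) in this document: synchronized HeLa Kyoto cells, proteins quantified by TMT10plex mass spectrometry, three biological replicates, mitosis taken 0.5 h after nocodazole release, G1/S directly after double thymidine block.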

In data set [1] (cell cycle stage: mitosis), “MIGCGACEPKVKMAGGQAAAALPTWKMAARRSLSARGRGILQAAAGRLLPLLLLSCCCGAGGCAAVGENEETVIIGLRLEDTNDVSFMEGGALRVSERTRVKLRVYGQNINNETWSRIAFTEHERRRHSPGERGLGGPAPPEPDSGPQRCGIRTSDIIILPHIILNRRTSGIIEIEIKPLRKMEKSKSYYLCTSLSTPALGAGGSGSTGGAVGGKGGSGVAGLPPPPWAETTWIYHDGEDTKMIVGEEKKFLLPFWLQVIFISLLLCLSGMFSGLNLGLMALDPMELRIVQNCGTEKEKNYAKRIEPVRRQGNYLLCSLLLGNVLVNTTLTILLDDIAGSGLVAVVVSTIGIVIFGEIVPQAICSRHGLAVGANTIFLTKFFMMMTFPASYPVSKLLDCVLGQEIGTVYNREKLLEMLRVTDPYNDLVKEELNIIQGALELRTKTVEDVMTPLRDCFMITGEAILDFNTMSEIMESGYTRIPVFEGERSNIVDLLFVKDLAFVDPDDCTPLKTITKFYNHPLHFVFNDTKLDAMLEEFKKGKSHLAIVQRVNNEGEGDPFYEVLGIVTLEDVIEEIIKSEILDETDLYTDNRTKKKVAHRERKQDFSAFKQTDSEMKVKISPQLLLAMHRFLATEVEAFSPSQMSEKILLRLLKHPNVIQELKYDEKNKKAPEYYLYQRNKPVDYFVLILQGKVEVEAGKEGMKFEASAFSYYGVMALTASPVPLSLSRTFVVSRTELLAAGSPGENKSPPRPCGLNHSDSLSRSDRIDAVTPTLGSSNNQLNSSLLQVYIPDYSVRALSDLQFVKISRQQYQNALMASRMDKTPQSSDSENTKIELTLTELHDGLPDETANLLNEQNCVTHSKANHSLHNEGAI [CNNM2]” showed a melting temperature of 51.1 °C. Further, the thermal stability score is -1.21 in data set [2] (setting [5]) and -1.62 in data set [2] (cell cycle stage: mitosis). For the same sequence, the “solubility in G1/S (log2)” value in data set [3] was -0.386. Moreover, the “solubility change mitosis (log2)” value in data set [4] stood at 0.346.
Consider “MIGGLFIYNHKGEVLISRVYRDDIGRNAVDAFRVNVIHARQQVRSPVTNIARTSFFHVKRSNIWLAAVTKQNVNAAMVFEFLYKMCDVMAAYFGKISEENIKNNFVLIYELLDEILDFGYPQNSETGALKTFITQQGIKSQHQTKEEQSQITSQVTGQIGWRREGIKYRRNELFLDVLESVNLLMSPQGQVLSAHVSGRVVMKSYLSGMPECKFGMNDKIVIEKQGKGTADETSKSGKQSIAIDDCTFHQCVRLSKFDSERSISFIPPDGEFELMRYRTTKDIILPFRVIPLVREVGRTKLEVKVVIKSNFKPSLLAQKIEVRIPTPLNTSGVQVICMKGKAKYKASENAIVWKIKRMAGMKESQISAEIELLPTNDKKKWARPPISMNFEVPFAPSGLKVRYLKVFEPKLNYSDHDVIKWVRYIGRSGIYETRC [AP2M1]”, for which the melting temperature stood at 52.3 °C in data set [1] (cell cycle stage: G1/S) and 51.6 °C in data set [1] (cell cycle stage: mitosis). The thermal stability score in data set [2] (setting [5]) was -2.25; in data set [2] (cell cycle stage: mitosis) it was -0.263. Also, the “solubility in G1/S (log2)” value in data set [3] was -0.387. Also, the “solubility change mitosis (log2)” value in data set [4] was determined as 0.00223.
In the case of “MIHSLFLINCSGDIFLEKHWKSVVSQSVCDYFFEAQEKAADVENVPPVISTPHHYLISIYRDKLFFVSVIQTEVPPLFVIEFLHRVADTFQDYFGECSEAAIKDNVVIVYELLEEMLDNGFPLATESNILKELIKPPTILRSVVNSITGSSNVGDTLPTGQLSNIPWRRAGVKYTNNEAYFDVVEEIDAIIDKSGSTVFAEIQGVIDACIKLSGMPDLSLSFMNPRLLDDVSFHPCIRFKRWESERVLSFIPPDGNFRLISYRVSSQNLVAIPVYVKHSISFKENSSCGRFDITIGPKQNMGKTIEGITVTVHMPKVVLNMNLTPTQGSYTFDPVTKVLTWDVGKITPQKLPSLKGLVNLQSGAPKPEENPSLNIQFKIQQLAISGLKVNRLDMYGEKYKPFKGVKYVTKAGKFQVRT [AP3M1]”, the melting temperature in data set [1] (cell cycle stage: G1/S) worked out at 50.8 °C; in data set [1] (cell cycle stage: mitosis), 50.1 °C. Further, the results for the thermal stability score in data set [2] (setting [5]) and in data set [2] (cell cycle stage: mitosis) were 0.811 and 0.722, respectively. For the same sequence, the “solubility in G1/S (log2)” value in data set [3] was -0.0152. The “solubility change mitosis (log2)” value in data set [4] was -0.0783.
On to “MILIPRMLLVLFLLLPILSSAKAQVNPAICRYPLGMSGGQIPDEDITASSQWSESTAAKYGRLDSEEGDGAWCPEIPVEPDDLKEFLQIDLHTLHFITLVGTQGRHAGGHGIEFAPMYKINYSRDGTRWISWRNRHGKQVLDGNSNPYDIFLKDLEPPIVARFVRFIPVTDHSMNVCMRVELYGCVWLDGLVSYNAPAGQQFVLPGGSIIYLNDSVYDGAVGYSMTEGLGQLTDGVSGLDDFTQTHEYHVWPGYDYVGWRNESATNGYIEIMFEFDRIRNFTTMKVHCNNMFAKGVKIFKEVQCYFRSEASEWEPNAISFPLVLDDVNPSARFVTVPLHHRMASAIKCQYHFADTWMMFSEITFQSDAAMYNNSEALPTSPMAPTTYDPMLKVDDSNTRILIGCLVAIIFILLAIIVIILWRQFWQKMLEKASRRMLDDEMTVSLSLPSDSSMFNNNRSSSPSEQGSNSTYDRIFPLRPDYQEPSRLIRKLPEFAPGEEESGCSGVVKPVQPSGPEGVPHYAEADIVNLQGVTGGNTYSVPAVTMDLLSGKDVAVEEFPRKLLTFKEKLGEGQFGEVHLCEVEGMEKFKDKDFALDVSANQPVLVAVKMLRADANKNARNDFLKEIKIMSRLKDPNIIHLLAVCITDDPLCMITEYMENGDLNQFLSRHEPPNSSSSDVRTVSYTNLKFMATQIASGMKYLSSLNFVHRDLATRNCLVGKNYTIKIADFGMSRNLYSGDYYRIQGRAVLPIRWMSWESILLGKFTTASDVWAFGVTLWETFTFCQEQPYSQLSDEQVIENTGEFFRDQGRQTYLPQPAICPDSVYKLMLSCWRRDTKNRPSFQEIHLLLLQQGDE [DDR2]”, for which the melting temperature in data set [1] (cell cycle stage: G1/S) worked out at 50.8 °C; in data set [1] (cell cycle stage: mitosis) it was 51 °C. Besides, the values for the thermal stability score in data set [2] (setting [5]) and in data set [2] (cell cycle stage: mitosis) were 0.527 and -1.72, respectively. For the same sequence, in data set [3], the “solubility in G1/S (log2)” value was -0.114. Besides, in data set [4], the “solubility change mitosis (log2)” value was found to be 0.0106.
